Earlier results, collected in paper PMC3024536.

Target: CD8αα (Mus musculus) (UniProt P01731)
UniProt P01731, sequence (P01731 28-196): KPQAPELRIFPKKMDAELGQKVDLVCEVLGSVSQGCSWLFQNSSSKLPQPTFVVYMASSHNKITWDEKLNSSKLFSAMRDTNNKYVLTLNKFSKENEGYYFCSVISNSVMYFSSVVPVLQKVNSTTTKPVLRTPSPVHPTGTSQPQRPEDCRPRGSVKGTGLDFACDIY

Kd: 12 µM
Substance: thymus leukaemia antigen (TL) (from UniProt P14432)
